Laboratory results reported in patent publication US20190002564A1 (Hoffmann-La Roche, published 2019).
Positions count from the first letter of the chain named. Names may count otherwise.

T1: cynomolgus MCSP D3 (cynomolgus, UniProt Q6UVK1 1582-2224 (human entry), limits assumed)
T1 construct: Recombinant, captured through anti-Penta His in the avidity set-up; also called Cyno MCSP; cynomolgus homologue
T1 chain: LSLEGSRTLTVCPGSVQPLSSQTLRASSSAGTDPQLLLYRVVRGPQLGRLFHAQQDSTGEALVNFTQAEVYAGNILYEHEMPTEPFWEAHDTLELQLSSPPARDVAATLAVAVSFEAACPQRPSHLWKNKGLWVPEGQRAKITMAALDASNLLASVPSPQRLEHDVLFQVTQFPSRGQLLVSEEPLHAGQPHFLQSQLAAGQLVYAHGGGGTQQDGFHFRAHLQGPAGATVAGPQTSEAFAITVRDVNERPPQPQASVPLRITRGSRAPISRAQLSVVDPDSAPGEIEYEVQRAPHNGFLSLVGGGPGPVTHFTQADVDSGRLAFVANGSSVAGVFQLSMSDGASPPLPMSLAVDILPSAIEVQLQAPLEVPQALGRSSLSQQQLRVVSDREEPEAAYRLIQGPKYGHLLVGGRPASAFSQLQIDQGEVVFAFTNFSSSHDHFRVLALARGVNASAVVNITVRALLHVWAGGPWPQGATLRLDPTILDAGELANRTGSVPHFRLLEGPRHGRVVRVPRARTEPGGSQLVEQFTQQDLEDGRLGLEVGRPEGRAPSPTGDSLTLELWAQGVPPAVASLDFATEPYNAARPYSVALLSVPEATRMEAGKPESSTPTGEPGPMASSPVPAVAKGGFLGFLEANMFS

T2: human MCSP(D3 domain)-avi-his (human, UniProt Q6UVK1 1582-2224)
T2 construct: Recombinant D3 domain of MCSP (CSPG4) with avi and his tags; also called hu-MCSP(D3 domain)-avi-his; human MCSP antigen
T2 sequence: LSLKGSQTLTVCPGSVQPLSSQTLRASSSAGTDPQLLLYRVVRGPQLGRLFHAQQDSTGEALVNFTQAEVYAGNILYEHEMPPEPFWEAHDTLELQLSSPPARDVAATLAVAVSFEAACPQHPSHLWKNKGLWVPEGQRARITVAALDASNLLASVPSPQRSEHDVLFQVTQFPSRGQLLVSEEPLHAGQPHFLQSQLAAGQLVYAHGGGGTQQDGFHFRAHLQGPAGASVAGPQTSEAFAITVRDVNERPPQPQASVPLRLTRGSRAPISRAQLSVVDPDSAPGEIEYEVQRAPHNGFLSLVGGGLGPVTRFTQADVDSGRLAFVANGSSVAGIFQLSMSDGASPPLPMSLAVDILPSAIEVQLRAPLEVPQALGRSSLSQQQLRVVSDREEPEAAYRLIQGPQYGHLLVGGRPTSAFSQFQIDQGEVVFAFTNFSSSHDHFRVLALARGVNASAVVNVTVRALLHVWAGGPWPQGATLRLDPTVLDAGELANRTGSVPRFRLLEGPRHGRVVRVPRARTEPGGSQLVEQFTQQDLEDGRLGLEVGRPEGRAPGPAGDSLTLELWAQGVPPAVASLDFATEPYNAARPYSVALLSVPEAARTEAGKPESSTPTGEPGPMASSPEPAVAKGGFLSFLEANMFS

B1: MCSP TCB (2+1 Crossfab-IgG P329G LALA inverted) (bispecific antibody)
chain 1: not shown
chain 2: QAVVTQEPSLTVSPGGTVTLTCGSSTGAVTTSNYANWVQEKPGQAFRGLIGGTNKRAPGTPARFSGSLLGGKAALTLSGAQPEDEAEYYCALWYSNLWVFGGGTKLTVLSSASTKGPSVFPLAPSSKSTSGGTAALGCLVKDYFPEPVTVSWNSGALTSGVHTFPAVLQSSGLYSLSSVVTVPSSSLGTQTYICNVNHKPSNTKVDKKVEPKSC
chain 3: not shown
chain 4: QVQLQESGPGLVKPSQTLSLTCTVSGGSITSGYYWNWIRQHPGKGLEWIGYITFDGSNNYNPSLKSRVTISRDTSKNQFSLKLSSVTAADTAVYYCADFDYWGQGTLVTVSSASTKGPSVFPLAPSSKSTSGGTAALGCLVKDYFPEPVTVSWNSGALTSGVHTFPAVLQSSGLYSLSSVVTVPSSSLGTQTYICNVNHKPSNTKVDKKVEPKSCDKTHTCPPCPAPEAAGGPSVFLFPPKPKDTLMISRTPEVTCVVVDVSHEDPEVKFNWYVDGVEVHNAKTKPREEQYNSTYRVVSVLTVLHQDWLNGKEYKCKVSNKALGAPIEKTISKAKGQPREPQVCTLPPSRDELTKNQVSLSCAVKGFYPSDIAVEWESNGQPENNYKTTPPVLDSDGSFFLVSKLTVDKSRWQQGNVFSCSVMHEALHNHYTQKSLSLSPGK
notes: Two anti-MCSP Fabs M4-3(C1) ML2(G3), one anti-CD3 crossfab (humanized CH2527), Fc knob-into-hole with P329G LALA; the conventional light chain occurs twice (vector ratio 1:2:1:1); also called MCSP TCB antibody; MCSP CD3 bispecific antibody
B2: M4-3(A7)/ML2(E10) IgG (antibody, V domains shown)
VH: QVQLQESGPGLVKPSQTLSLTCTVSGGSITDGYYWNWIRQHPGKGLEWIGYITFDGRNNYNPSLKSRVTISRDTSKNQFSLKLSSVTAADTAVYYCADFDYWGQGTLVTVSS
VL: DIQMTQSPSSLSASVGDRVTITCRASYGIRGYLNWYQQKPGKAPKLLIYYTSSLHSGVPSRFSGSGSGTDFTLTISSLQPEDFATYHCQQYSKLPWTFGQGTKVEIK
notes: Human IgG1 format, purified from mammalian production
B3: M4-3(C1)/ML2(G3) IgG (antibody, V domains shown)
VH: B2 VH with D31S, R57S
VL: DIQMTQSPSSLSASVGDRVTITCRASQGIRNYLNWYQQKPGKAPKLLIYYTSSLHSGVPSRFSGSGSGTDYTLTISSLQPEDFATYYCQQYSALPWTFGQGTKVEIKR
notes: Human IgG1 format, produced in HEK293-EBNA
B4: M4-3(A7)/ML2 IgG (antibody, V domains shown)
VH: B2 VH
VL: B2 VL with Y27Q, G31N, H87Y
notes: as for B2
B5: M4-3(B7)/ML2 IgG (antibody, V domains shown)
VH: B2 VH with D31S, R57I
VL: B2 VL with Y27Q, G31N, H87Y
notes: as for B2
B6: M4-3(D6)/ML2 IgG (antibody, V domains shown)
VH: B2 VH with D31S, R57K
VL: B2 VL with Y27Q, G31N, H87Y
notes: as for B2
B7: M4-3/ML2(C5) IgG (antibody, V domains shown)
VH: B2 VH with D31S, F54Y, R57S
VL: B2 VL with Y27R, G31E, S52G, H87Y, K93E
notes: as for B2
B8: M4-3(B8)/ML2 IgG (antibody, V domains shown)
VH: B2 VH with D31S
VL: B2 VL with Y27Q, G31N, H87Y
notes: as for B2
B9: M4-3(A7)/ML2(C5) IgG (antibody, V domains shown)
VH: B2 VH
VL: B2 VL with Y27R, G31E, S52G, H87Y, K93E
notes: as for B2
B10: M4-3(A7)/ML2(G3) IgG (antibody, V domains shown)
VH: B2 VH
VL: B2 VL with Y27Q, G31N, F71Y, H87Y, K93A
notes: as for B2
B11: M4-3/ML2(E10/G3) IgG (antibody, V domains shown)
VH: B2 VH with D31S, F54Y, R57S
VL: B2 VL with K93A
notes: as for B2
B12: M4-3(C1)/ML2(C5) IgG (antibody, V domains shown)
VH: B2 VH with D31S, R57S
VL: B2 VL with Y27R, G31E, S52G, H87Y, K93E
notes: as for B3
B13: M4-3(C1)/ML2(E10) IgG (antibody, V domains shown)
VH: B2 VH with D31S, R57S
VL: B2 VL
notes: as for B3
B14: M4-3(C1)/ML2 IgG (antibody, V domains shown)
VH: B2 VH with D31S, R57S
VL: B2 VL with Y27Q, G31N, H87Y
notes: as for B2
B15: M4-3/ML2(C5/G3) IgG (antibody, V domains shown)
VH: B2 VH with D31S, F54Y, R57S
VL: B2 VL with Y27R, G31E, S52G, H87Y, K93A
notes: as for B2
B16: M4-3/ML2(E10) IgG (antibody, V domains shown)
VH: B2 VH with D31S, F54Y, R57S
VL: B2 VL
notes: as for B2
B17: M4-3/ML2(G3) IgG (antibody, V domains shown)
VH: B2 VH with D31S, F54Y, R57S
VL: B2 VL with Y27Q, G31N, F71Y, H87Y, K93A
notes: as for B2

Molecular target: T3, human CD3 on Jurkat cells (Homo sapiens, UniProt P07766)
T3 construct: native, on the surface of the Jurkat human T cell line; also called CD3+ cells (Jurkat)
Assay: flow cytometry on Jurkat cells (CD3+), PE-conjugated anti-human IgG Fcγ secondary antibody, median fluorescence intensity
Protocol: Briefly, cells were harvested, counted, checked for viability and resuspended at 2×10⁶ cells/ml in FACS buffer (100 μl PBS 0.1% BSA).

T3 sequence (P07766 23-207): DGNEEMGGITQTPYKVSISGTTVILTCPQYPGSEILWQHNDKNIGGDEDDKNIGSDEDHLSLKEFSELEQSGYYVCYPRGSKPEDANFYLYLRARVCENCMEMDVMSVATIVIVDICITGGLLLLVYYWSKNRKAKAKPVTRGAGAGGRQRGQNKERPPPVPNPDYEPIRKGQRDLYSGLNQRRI

Row | Binder | binding result
1 | B1 | binds

Molecular target: T1, cynomolgus MCSP D3
Assay: SPR ProteOn XPR36; parental M4-3/ML2 IgG KD against variant IgG KD

Row | Binder | Fold increase over parent (IgG KD)
2 | B2 | 2.9 fold
3 | B3 | 10 fold
4 | B4 | 2 fold
5 | B5 | 2.9 fold
6 | B6 | 2 fold
7 | B7 | 2 fold
8 | B8 | 2 fold
9 | B9 | 10 fold
10 | B10 | 10 fold
11 | B11 | 2.2 fold
12 | B12 | 6.7 fold
13 | B13 | 3.3 fold
14 | B14 | 2.5 fold
15 | B15 | 2 fold
16 | B16 | 1 fold
17 | B17 | 3.3 fold

Molecular target: T2, human MCSP(D3 domain)-avi-his
Assay: as above

Row | Binder | Fold increase over parent (IgG KD)
18 | B2 | 6.7 fold
19 | B3 | 28.6 fold
20 | B4 | 2.5 fold
21 | B5 | 4 fold
22 | B6 | 5 fold
23 | B7 | 5 fold
24 | B8 | 2.2 fold
25 | B9 | 28.6 fold
26 | B10 | 28.6 fold
27 | B11 | 5 fold
28 | B12 | 10 fold
29 | B13 | 4 fold
30 | B14 | 2.2 fold
31 | B15 | 2.9 fold
32 | B16 | 2 fold
33 | B17 | 6.7 fold
